Assay results reported in publication PMC4873810.

Molecular target: mouse embryonic heparan sulfate (HS) coupled to HiTrap column
Assay: HS affinity chromatography (FPLC)
Details: 0-1.5 M NaCl gradient from fraction 5 to 14, parent: est. 100, read off a plot
[1] = value is the height of the salt-eluted peak at fraction 12

Row | response [1] [%] | response (value is the height of the salt-eluted peak at about fraction 12) [%] | Substance
1 | 11 |  | Scube2 (signal peptide, CUB domain, epidermal growth factor (EGF)-like protein 2), full-length, FLAG-tagged (from UniProt Q9NQ36) K608A; R609A; K612A; R613A; R615A; K616A; R619A; R622A; K623A; H626A; R627A; K643A; K644A; R647A
2 | 4 |  | Scube2 (signal peptide, CUB domain, epidermal growth factor (EGF)-like protein 2), full-length, FLAG-tagged (from UniProt Q9NQ36) K608E; R609E; K612E; R613E; R615E; K616E; R619E; R622E; K623E; H626E; R627E
3 |  | 5 | Spacer (isolated Scube2 spacer domain) K608A; R609A; K612A; R613A; R615A; K616A; R619A; R622A; K623A; H626A; R627A; K643A; K644A; R647A
